Patent US20230357343A1 (ASHER BIOTHERAPEUTICS, published 2023)

T1: mouse CD8 (mouse, UniProt P10300 22-175, limits assumed)
T1 construct: also called mouse CD8b
T1 sequence (looked up): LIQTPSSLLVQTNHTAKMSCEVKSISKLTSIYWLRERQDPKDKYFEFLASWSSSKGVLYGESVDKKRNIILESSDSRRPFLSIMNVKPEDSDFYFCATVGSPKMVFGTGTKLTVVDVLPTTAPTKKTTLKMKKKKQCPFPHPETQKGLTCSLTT


Tests used:
[1] = molecular target: recombinant human IL-21R, extracellular domain fused to 8xHistidine tag (generated in house) (human, UniProt Q9HBE5 20-232); test: SPR 37 C
[2] = molecular target: human CD8 on CD8+ T cells (human, UniProt P01732 22-235; P10966 22-210); test: cell-based or functional assay
[3] = molecular target: T2, Human IL-21R (Biolegend, Catalog No. 773104) (human, UniProt Q9HBE5 20-232, limits assumed); test: SPR 37 C
T2 construct: Bought protein; also called IL-21 receptor

[4] = molecular target: T2, Human IL-21R (Biolegend, Catalog No. …); test: SPR 37 C, Fc-captured fusion;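 further: biacore SPR with anti-human IgG Fc surface and blank flow cell as reference, 10 min dissociation, double-referenced, 1:1 Langmuir fit with mass transport, triplicate runs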
[5] = molecular target: T1, mouse CD8; test: stated; no assay described

T2 sequence (Q9HBE5 20-232 limits assumed): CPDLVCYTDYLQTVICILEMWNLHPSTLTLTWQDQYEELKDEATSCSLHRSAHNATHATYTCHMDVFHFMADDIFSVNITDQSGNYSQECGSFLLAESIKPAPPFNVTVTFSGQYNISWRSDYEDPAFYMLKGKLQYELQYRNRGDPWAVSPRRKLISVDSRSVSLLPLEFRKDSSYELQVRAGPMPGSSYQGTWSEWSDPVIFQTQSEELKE
Sequence of human CD8 on CD8+ T cells (P01732 22-235, chain 1 of 2): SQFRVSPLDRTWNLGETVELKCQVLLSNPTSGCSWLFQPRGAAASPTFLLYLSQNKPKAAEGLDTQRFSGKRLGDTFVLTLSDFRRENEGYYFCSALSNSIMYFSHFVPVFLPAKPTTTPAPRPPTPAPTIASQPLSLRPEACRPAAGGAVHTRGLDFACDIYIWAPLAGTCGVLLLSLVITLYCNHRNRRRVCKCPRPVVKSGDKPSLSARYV
Sequence of human CD8 on CD8+ T cells (P10966 22-210, chain 2 of 2): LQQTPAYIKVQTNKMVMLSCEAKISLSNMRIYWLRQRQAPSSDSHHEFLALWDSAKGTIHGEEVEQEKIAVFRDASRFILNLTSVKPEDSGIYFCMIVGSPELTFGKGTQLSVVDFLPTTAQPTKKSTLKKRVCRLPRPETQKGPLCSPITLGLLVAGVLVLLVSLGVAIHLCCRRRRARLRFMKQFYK
Sequence of recombinant human IL-21R, extracellular domain fused to 8xHistidine tag (generated in house) (Q9HBE5 other isoform, or with tags, fused parts or gaps limits assumed): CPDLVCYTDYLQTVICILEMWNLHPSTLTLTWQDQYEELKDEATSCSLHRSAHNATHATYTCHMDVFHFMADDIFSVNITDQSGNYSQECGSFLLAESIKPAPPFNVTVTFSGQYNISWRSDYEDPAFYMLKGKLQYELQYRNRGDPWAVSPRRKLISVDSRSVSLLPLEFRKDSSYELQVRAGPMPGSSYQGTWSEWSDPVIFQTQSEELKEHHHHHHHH

binding result [1] | fold difference in IL-21R affinity against wild type IL-21 [3] [fold] | Kd [4] [nM] | koff [4] [s⁻¹] | kon [4] [M⁻¹ s⁻¹] | Binder | also measured
 | ≤ 2 | 0.106 | 0.00139 | 1.31e+07 | xhCD8.1-hIL21 v27 (other, hIgG1/kappa; IL-21 part on one heavy-chain C-terminus via (G4S)3 linker) not shown VH: QVQLVQSGAEVKKPGSSVKVSCKASGGTFSSYAISWVRQAPGQGLEWMGGIIPGYATANYAQKFQGRVTITADESTSTAYMELSSLRSEDTAVYYCARDAAGIRLFADWGQGTLVTVSS VL: DIQMTQSPSSLSASVGDRVTITCRASQSIYGALNWYQQKPGKAPKLLIYGASNLQSGVPSRFSGSGSGTDFTLTISSLQPEDFATYYCQSTYTAPWTFGGGTKVEIK | 
 | ≤ 2 | 0.106 | 0.00139 | 1.31e+07 | xhCD8.1-hIL21 v28 (other, hIgG1/kappa; IL-21 part on one heavy-chain C-terminus via (G4S)3 linker) not shown VH: QVQLVQSGAEVKKPGSSVKVSCKASGGTFSSYAISWVRQAPGQGLEWMGGIIPGYATANYAQKFQGRVTITADESTSTAYMELSSLRSEDTAVYYCARDAAGIRLFADWGQGTLVTVSS VL: DIQMTQSPSSLSASVGDRVTITCRASQSIYGALNWYQQKPGKAPKLLIYGASNLQSGVPSRFSGSGSGTDFTLTISSLQPEDFATYYCQSTYTAPWTFGGGTKVEIK | 
 | ≤ 2 | 0.093 | 0.00107 | 1.16e+07 | xhCD8.1-hIL21 v30 (other, hIgG1/kappa; IL-21 part on one heavy-chain C-terminus via (G4S)3 linker) not shown VH: QVQLVQSGAEVKKPGSSVKVSCKASGGTFSSYAISWVRQAPGQGLEWMGGIIPGYATANYAQKFQGRVTITADESTSTAYMELSSLRSEDTAVYYCARDAAGIRLFADWGQGTLVTVSS VL: DIQMTQSPSSLSASVGDRVTITCRASQSIYGALNWYQQKPGKAPKLLIYGASNLQSGVPSRFSGSGSGTDFTLTISSLQPEDFATYYCQSTYTAPWTFGGGTKVEIK | 
 | ≤ 2 | 0.094 | 0.00113 | 1.2e+07 | xhCD8.1-hIL21 v31 (other, hIgG1/kappa; IL-21 part on one heavy-chain C-terminus via (G4S)3 linker) not shown VH: QVQLVQSGAEVKKPGSSVKVSCKASGGTFSSYAISWVRQAPGQGLEWMGGIIPGYATANYAQKFQGRVTITADESTSTAYMELSSLRSEDTAVYYCARDAAGIRLFADWGQGTLVTVSS VL: DIQMTQSPSSLSASVGDRVTITCRASQSIYGALNWYQQKPGKAPKLLIYGASNLQSGVPSRFSGSGSGTDFTLTISSLQPEDFATYYCQSTYTAPWTFGGGTKVEIK | 

The next lines start with the binder.

Binder | binding result [1] | fold difference in IL-21R affinity against wild type IL-21 [3] [fold] | Kd [4] [nM] | koff [4] [s⁻¹] | kon [4] [M⁻¹ s⁻¹] | also measured
xhCD8.1-hIL21 v2.20 (other, hIgG1/kappa; IL-21 part on one heavy-chain C-terminus via (G4S)3 linker) not shown VH: QVQLVQSGAEVKKPGSSVKVSCKASGGTFSSYAISWVRQAPGQGLEWMGGIIPGYATANYAQKFQGRVTITADESTSTAYMELSSLRSEDTAVYYCARDAAGIRLFADWGQGTLVTVSS VL: DIQMTQSPSSLSASVGDRVTITCRASQSIYGALNWYQQKPGKAPKLLIYGASNLQSGVPSRFSGSGSGTDFTLTISSLQPEDFATYYCQSTYTAPWTFGGGTKVEIK | no binding |  |  |  |  | 
xhCD8.1-hIL21 v2.42 (other, hIgG1/kappa; IL-21 part on one heavy-chain C-terminus via (G4S)3 linker) not shown VH: QVQLVQSGAEVKKPGSSVKVSCKASGGTFSSYAISWVRQAPGQGLEWMGGIIPGYATANYAQKFQGRVTITADESTSTAYMELSSLRSEDTAVYYCARDAAGIRLFADWGQGTLVTVSS VL: DIQMTQSPSSLSASVGDRVTITCRASQSIYGALNWYQQKPGKAPKLLIYGASNLQSGVPSRFSGSGSGTDFTLTISSLQPEDFATYYCQSTYTAPWTFGGGTKVEIK | no binding |  |  |  |  | 
xhCD8.1-hIL21 v2.43 (other, hIgG1/kappa; IL-21 part on one heavy-chain C-terminus via (G4S)3 linker) not shown VH: QVQLVQSGAEVKKPGSSVKVSCKASGGTFSSYAISWVRQAPGQGLEWMGGIIPGYATANYAQKFQGRVTITADESTSTAYMELSSLRSEDTAVYYCARDAAGIRLFADWGQGTLVTVSS VL: DIQMTQSPSSLSASVGDRVTITCRASQSIYGALNWYQQKPGKAPKLLIYGASNLQSGVPSRFSGSGSGTDFTLTISSLQPEDFATYYCQSTYTAPWTFGGGTKVEIK | no binding |  |  |  |  | 
xhCD8.1-hIL21 v2.45 (other, hIgG1/kappa; IL-21 part on one heavy-chain C-terminus via (G4S)3 linker) not shown VH: QVQLVQSGAEVKKPGSSVKVSCKASGGTFSSYAISWVRQAPGQGLEWMGGIIPGYATANYAQKFQGRVTITADESTSTAYMELSSLRSEDTAVYYCARDAAGIRLFADWGQGTLVTVSS VL: DIQMTQSPSSLSASVGDRVTITCRASQSIYGALNWYQQKPGKAPKLLIYGASNLQSGVPSRFSGSGSGTDFTLTISSLQPEDFATYYCQSTYTAPWTFGGGTKVEIK | no binding |  |  |  |  | 
xhCD8.1-hIL21 v2.46 (other, hIgG1/kappa; IL-21 part on one heavy-chain C-terminus via (G4S)3 linker) not shown VH: QVQLVQSGAEVKKPGSSVKVSCKASGGTFSSYAISWVRQAPGQGLEWMGGIIPGYATANYAQKFQGRVTITADESTSTAYMELSSLRSEDTAVYYCARDAAGIRLFADWGQGTLVTVSS VL: DIQMTQSPSSLSASVGDRVTITCRASQSIYGALNWYQQKPGKAPKLLIYGASNLQSGVPSRFSGSGSGTDFTLTISSLQPEDFATYYCQSTYTAPWTFGGGTKVEIK | no binding |  |  |  |  | 
xhCD8.1-hIL21 v2.63 (other, hIgG1/kappa; IL-21 part on one heavy-chain C-terminus via (G4S)3 linker) QGQDRHMIRMRQLIDRIDQLKNYVNDLVPEFLPAPEDVETNCEWSAFSCFQKAQLKSANTGNNERIINVSIKKIKRKPPSTNAGGGQGHELTCPSCDSYEKKPPKEFLERFKSLLQKMIHQHLSSRTHGSEDS VH: QVQLVQSGAEVKKPGSSVKVSCKASGGTFSSYAISWVRQAPGQGLEWMGGIIPGYATANYAQKFQGRVTITADESTSTAYMELSSLRSEDTAVYYCARDAAGIRLFADWGQGTLVTVSS VL: DIQMTQSPSSLSASVGDRVTITCRASQSIYGALNWYQQKPGKAPKLLIYGASNLQSGVPSRFSGSGSGTDFTLTISSLQPEDFATYYCQSTYTAPWTFGGGTKVEIK |  |  |  |  |  | STAT3 activation in human whole blood (pSTAT3, flow cytometry) [2]: > 100 fold
xhCD8.1-hIL21 v2.64 (other, hIgG1/kappa; IL-21 part on one heavy-chain C-terminus via (G4S)3 linker) QGQDRHMIRMRQFIDAADQLKNYVNDLVPEFLPAPEDVETNCEWSAFSCFQKAQLKSANTGNNERIINVSIKKMKRKPPSTNAGGGQGHELTCPSCDSYEKKPPKEFLERFKSLLQKMIHQHLSSRTHGSEDS VH: QVQLVQSGAEVKKPGSSVKVSCKASGGTFSSYAISWVRQAPGQGLEWMGGIIPGYATANYAQKFQGRVTITADESTSTAYMELSSLRSEDTAVYYCARDAAGIRLFADWGQGTLVTVSS VL: DIQMTQSPSSLSASVGDRVTITCRASQSIYGALNWYQQKPGKAPKLLIYGASNLQSGVPSRFSGSGSGTDFTLTISSLQPEDFATYYCQSTYTAPWTFGGGTKVEIK |  |  |  |  |  | STAT3 activation in human whole blood (pSTAT3, flow cytometry) [2]: > 100 fold
xhCD8.1-hIL21 v2.65 (other, hIgG1/kappa; IL-21 part on one heavy-chain C-terminus via (G4S)3 linker) QGQDRHMIRMRQRIDAIDQLKNYVNDLVPEFLPAPEDVETNCEWSAFSCFQKAQLKSANTGNNERIINVSIKKIKRKPPSTNAGGGQGHELTCPSCDSYEKKPPKEFLERFKSLLQKMIHQHLSSRTHGSEDS VH: QVQLVQSGAEVKKPGSSVKVSCKASGGTFSSYAISWVRQAPGQGLEWMGGIIPGYATANYAQKFQGRVTITADESTSTAYMELSSLRSEDTAVYYCARDAAGIRLFADWGQGTLVTVSS VL: DIQMTQSPSSLSASVGDRVTITCRASQSIYGALNWYQQKPGKAPKLLIYGASNLQSGVPSRFSGSGSGTDFTLTISSLQPEDFATYYCQSTYTAPWTFGGGTKVEIK |  |  |  |  |  | STAT3 activation in human whole blood (pSTAT3, flow cytometry) [2]: > 100 fold
xhCD8.1-hIL21 v29 (other, hIgG1/kappa; IL-21 part on one heavy-chain C-terminus via (G4S)3 linker) QGQDRHMIRMRQLIDIVDQLKNYVNDLVPEFLPAPEDVETNCEWSAFSCFQKAQLKSANTGNNERIINVSIKKLKRKPPGGGGEGGGGGEGGCPSCDSYEKKPPKEFLERFKSLLQKMIHQHLSSRTHGSEDS VH: QVQLVQSGAEVKKPGSSVKVSCKASGGTFSSYAISWVRQAPGQGLEWMGGIIPGYATANYAQKFQGRVTITADESTSTAYMELSSLRSEDTAVYYCARDAAGIRLFADWGQGTLVTVSS VL: DIQMTQSPSSLSASVGDRVTITCRASQSIYGALNWYQQKPGKAPKLLIYGASNLQSGVPSRFSGSGSGTDFTLTISSLQPEDFATYYCQSTYTAPWTFGGGTKVEIK |  | ≤ 2 | 0.094 | 0.00119 | 1.27e+07 | 
xhCD8v11 (antibody, V domains shown, used as targeting arm of fusions) VH: EVQLVESGGGLVQPGGSLRLSCAASGFTFSSYAMSWVRQAPGKGLEWVSDITYAGGSTAYADSVKGRFTISRDNAKNSLYLQMNSLRAEDTAVYYCARSNAYAWDDALDIWGQGTLVTVSS VL: not shown |  |  |  |  |  | binding result [5]: no binding
